Measured values taken from patent CN116143922A (BEIJING DONGFANG BIOTECH CO LTD, dated 2023).

Experiments:
[1] = target: T1, THP-1细胞表面的LILRB4 (human, UniProt Q8NHJ6 22-448); assay: flow cytometry on THP-1 cells, FITC goat anti-mouse IgG detection
T1 construct: whole, on cells; Endogenous LILRB4 on THP-1 cells; also called 人单核细胞白血病细胞(THP-1)表面LILRB4

[2] = target: T1, THP-1细胞表面的LILRB4; assay: flow cytometry competition on THP-1 cells; MD-Ⅰ titrated, competitor FITC-labelled ApoE at 0.4 μg/mL
[3] = target: T2, LILRB4抗原 (人LILRB4蛋白胞外段) (human, UniProt Q8NHJ6 22-259); assay: ELISA, coated LILRB4 100 ng/well, goat anti-mouse IgG-HRP detection
T2 construct: extracellular domain

[4] = target: T1, THP-1细胞表面的LILRB4; assay: cell-based or functional assay
[5] = target: T3, LILRA5 (UniProt A6NI73 42-268, limits assumed); assay: ELISA, coated LILR family protein 100 ng/well, single antibody concentration
[6] = target: T4, LILRB1 (UniProt Q8NHL6 24-461, limits assumed); assay: as above
[7] = target: T5, LILRB3 (UniProt O75022 24-443, limits assumed); assay: as above
[8] = target: T6, LILRA4 (UniProt P59901 24-446, limits assumed); assay: as above
[9] = target: T7, LILRB2 (UniProt Q8N423 22-460, limits assumed); assay: as above
[10] = target: T8, LILRB5 (UniProt O75023 24-458, limits assumed); assay: as above
[11] = target: T9, LILRA6 (UniProt Q6PI73 24-447, limits assumed); assay: as above
[12] = target: T10, LILRA1 (UniProt O75019 17-461, limits assumed); assay: as above
[13] = target: T11, LILRA2 (UniProt Q8N149 24-449, limits assumed); assay: as above
[14] = target: T12, LILRA3 (UniProt Q8N6C8 24-439); assay: as above
[15] = target: T3, LILRA5; assay: ELISA, coated LILR family protein, antibody at 50 μg/mL
[16] = target: T4, LILRB1; assay: as above
[17] = target: T5, LILRB3; assay: as above
[18] = target: T2, LILRB4抗原 (人LILRB4蛋白胞外段); assay: as above
[19] = target: T6, LILRA4; assay: as above
[20] = target: T7, LILRB2; assay: as above
[21] = target: T8, LILRB5; assay: as above
[22] = target: T9, LILRA6; assay: as above
[23] = target: T10, LILRA1; assay: as above
[24] = target: T11, LILRA2; assay: as above
[25] = target: T12, LILRA3; assay: as above

T4 sequence (Q8NHL6 24-461 limits assumed): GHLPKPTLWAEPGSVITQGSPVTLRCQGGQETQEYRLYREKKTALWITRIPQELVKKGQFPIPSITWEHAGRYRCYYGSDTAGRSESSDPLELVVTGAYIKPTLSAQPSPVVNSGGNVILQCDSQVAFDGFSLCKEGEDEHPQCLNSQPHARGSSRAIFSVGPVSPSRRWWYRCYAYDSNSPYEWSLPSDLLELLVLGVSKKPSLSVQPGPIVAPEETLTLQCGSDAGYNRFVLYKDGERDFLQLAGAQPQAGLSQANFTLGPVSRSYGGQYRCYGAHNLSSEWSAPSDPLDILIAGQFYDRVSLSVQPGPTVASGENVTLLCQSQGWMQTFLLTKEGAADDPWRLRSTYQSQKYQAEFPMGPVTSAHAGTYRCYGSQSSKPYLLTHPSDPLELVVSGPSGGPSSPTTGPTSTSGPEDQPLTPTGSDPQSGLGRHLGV
T12 sequence (Q8N6C8 24-439 limits assumed): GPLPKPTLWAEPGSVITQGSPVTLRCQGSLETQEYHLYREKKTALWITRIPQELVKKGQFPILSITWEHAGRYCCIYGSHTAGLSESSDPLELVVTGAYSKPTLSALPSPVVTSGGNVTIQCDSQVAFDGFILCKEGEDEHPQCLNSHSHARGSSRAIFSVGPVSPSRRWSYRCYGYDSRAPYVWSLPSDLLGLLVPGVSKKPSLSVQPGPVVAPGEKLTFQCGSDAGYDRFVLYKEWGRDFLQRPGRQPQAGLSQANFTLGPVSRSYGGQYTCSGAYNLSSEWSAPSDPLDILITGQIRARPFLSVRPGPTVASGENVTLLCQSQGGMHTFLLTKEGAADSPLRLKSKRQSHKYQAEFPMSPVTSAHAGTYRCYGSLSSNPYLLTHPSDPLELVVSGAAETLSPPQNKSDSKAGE
T6 sequence (P59901 24-446 limits assumed): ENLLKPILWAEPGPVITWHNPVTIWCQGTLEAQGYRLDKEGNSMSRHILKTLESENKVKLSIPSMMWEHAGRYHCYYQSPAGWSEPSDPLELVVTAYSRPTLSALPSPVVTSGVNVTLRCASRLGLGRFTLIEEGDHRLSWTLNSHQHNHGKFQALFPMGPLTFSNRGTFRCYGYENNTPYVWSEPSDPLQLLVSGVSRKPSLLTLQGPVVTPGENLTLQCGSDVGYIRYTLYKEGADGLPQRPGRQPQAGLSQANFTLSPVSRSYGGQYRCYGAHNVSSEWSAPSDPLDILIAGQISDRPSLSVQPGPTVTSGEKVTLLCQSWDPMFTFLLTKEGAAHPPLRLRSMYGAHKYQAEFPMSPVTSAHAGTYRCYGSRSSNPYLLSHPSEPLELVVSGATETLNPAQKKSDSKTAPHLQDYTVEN
T3 sequence (A6NI73 42-268 limits assumed): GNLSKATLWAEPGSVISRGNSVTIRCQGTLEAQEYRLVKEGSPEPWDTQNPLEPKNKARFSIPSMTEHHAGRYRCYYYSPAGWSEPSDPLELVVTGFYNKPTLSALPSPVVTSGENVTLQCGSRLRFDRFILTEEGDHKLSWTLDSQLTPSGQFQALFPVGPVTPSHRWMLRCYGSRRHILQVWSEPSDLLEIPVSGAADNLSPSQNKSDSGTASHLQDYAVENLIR
T7 sequence (Q8N423 22-460 limits assumed): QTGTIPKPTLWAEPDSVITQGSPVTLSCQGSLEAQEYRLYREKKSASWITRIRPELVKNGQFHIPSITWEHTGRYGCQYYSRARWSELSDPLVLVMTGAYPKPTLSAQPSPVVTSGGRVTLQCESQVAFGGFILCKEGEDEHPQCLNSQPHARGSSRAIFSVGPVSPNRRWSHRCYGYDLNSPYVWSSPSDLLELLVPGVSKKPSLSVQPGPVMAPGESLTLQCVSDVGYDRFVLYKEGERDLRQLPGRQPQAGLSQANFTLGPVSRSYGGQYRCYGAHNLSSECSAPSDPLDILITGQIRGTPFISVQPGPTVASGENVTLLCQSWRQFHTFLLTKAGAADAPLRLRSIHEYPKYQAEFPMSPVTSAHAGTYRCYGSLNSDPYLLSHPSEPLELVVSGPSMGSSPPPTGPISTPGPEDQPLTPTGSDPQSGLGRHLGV
T8 sequence (O75023 24-458 limits assumed): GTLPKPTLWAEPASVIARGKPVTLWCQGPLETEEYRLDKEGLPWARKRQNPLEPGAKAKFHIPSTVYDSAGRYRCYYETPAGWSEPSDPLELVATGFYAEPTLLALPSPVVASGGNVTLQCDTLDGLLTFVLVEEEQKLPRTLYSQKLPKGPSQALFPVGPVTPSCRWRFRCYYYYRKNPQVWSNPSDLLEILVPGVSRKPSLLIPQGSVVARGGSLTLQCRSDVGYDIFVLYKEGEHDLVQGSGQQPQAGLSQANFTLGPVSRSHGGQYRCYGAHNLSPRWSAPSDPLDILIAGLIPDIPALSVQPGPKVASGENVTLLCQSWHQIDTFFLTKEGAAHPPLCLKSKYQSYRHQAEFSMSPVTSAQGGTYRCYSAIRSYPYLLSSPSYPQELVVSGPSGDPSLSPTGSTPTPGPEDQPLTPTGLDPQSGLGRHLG
T11 sequence (Q8N149 24-449 limits assumed): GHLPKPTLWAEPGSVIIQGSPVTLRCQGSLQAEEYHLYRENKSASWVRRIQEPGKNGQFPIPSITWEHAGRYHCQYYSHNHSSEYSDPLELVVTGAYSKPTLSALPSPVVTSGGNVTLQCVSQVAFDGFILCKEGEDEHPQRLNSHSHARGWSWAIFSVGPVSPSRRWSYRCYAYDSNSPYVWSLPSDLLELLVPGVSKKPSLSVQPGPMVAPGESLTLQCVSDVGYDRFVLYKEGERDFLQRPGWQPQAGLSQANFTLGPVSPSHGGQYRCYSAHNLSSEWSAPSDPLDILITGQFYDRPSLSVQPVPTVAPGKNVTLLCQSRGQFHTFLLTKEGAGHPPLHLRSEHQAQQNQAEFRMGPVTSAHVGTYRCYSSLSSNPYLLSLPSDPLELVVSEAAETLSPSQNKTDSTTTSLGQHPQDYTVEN
T5 sequence (O75022 24-443 limits assumed): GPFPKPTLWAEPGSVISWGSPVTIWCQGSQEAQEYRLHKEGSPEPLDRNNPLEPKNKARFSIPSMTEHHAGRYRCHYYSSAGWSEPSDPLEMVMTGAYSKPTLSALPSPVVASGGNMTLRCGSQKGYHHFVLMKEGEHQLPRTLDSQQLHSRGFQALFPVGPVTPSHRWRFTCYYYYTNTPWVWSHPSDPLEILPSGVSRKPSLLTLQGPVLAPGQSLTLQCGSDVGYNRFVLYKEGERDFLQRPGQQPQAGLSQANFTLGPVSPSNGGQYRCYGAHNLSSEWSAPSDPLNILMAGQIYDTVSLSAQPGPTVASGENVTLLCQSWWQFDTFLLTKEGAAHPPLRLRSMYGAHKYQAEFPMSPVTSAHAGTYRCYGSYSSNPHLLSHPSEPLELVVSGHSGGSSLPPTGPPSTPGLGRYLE
T10 sequence (O75019 17-461 limits assumed): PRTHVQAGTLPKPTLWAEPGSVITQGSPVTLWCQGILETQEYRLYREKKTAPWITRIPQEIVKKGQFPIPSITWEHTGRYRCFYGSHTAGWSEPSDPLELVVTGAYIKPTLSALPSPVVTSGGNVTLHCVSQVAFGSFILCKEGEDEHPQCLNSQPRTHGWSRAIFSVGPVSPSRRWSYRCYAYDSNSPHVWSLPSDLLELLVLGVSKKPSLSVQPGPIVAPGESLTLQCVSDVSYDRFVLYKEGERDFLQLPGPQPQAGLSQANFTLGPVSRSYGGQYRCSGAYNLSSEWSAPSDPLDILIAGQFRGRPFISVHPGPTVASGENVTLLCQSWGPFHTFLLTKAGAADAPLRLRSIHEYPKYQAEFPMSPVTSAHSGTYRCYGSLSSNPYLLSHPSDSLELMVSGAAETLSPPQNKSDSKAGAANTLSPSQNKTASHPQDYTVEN
T9 sequence (Q6PI73 24-447 limits assumed): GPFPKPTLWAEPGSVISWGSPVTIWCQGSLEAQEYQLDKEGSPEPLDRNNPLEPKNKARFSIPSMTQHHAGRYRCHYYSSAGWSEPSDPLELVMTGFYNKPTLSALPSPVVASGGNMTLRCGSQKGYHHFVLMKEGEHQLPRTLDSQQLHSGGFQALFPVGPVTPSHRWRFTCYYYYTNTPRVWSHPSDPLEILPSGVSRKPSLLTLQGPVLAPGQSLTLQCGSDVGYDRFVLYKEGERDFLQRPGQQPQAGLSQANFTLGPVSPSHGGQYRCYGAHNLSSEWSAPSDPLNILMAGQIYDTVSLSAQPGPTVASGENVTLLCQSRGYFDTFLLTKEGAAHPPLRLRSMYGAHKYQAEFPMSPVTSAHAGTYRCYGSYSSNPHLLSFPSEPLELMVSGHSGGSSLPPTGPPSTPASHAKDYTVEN

B1: 抗LILRB4单克隆抗体MD-Ⅰ (mouse IgG1 heavy chain constant region, mouse Ck light chain constant region) (antibody, V domains shown)
VH: EVQLQESGPQLVRPGTSVKLSCKASGYTFTNYWIHWVKQRPGQGLEWIGEINPTNGHTNYNEKFKSKATLTVDKSSSTAYMQLSSLTSEDSAVYYCARYTYDQDAMDYWGQGTSVTVSS
VL: DIVITQSTSSLSASLGDRVTISCRASQDISNYLNWYQQKPDGTVKLLIYYTSRLHSGVPSRFSGSGSGTDYSLTISNLEQEDIATYFCQQGNTLPPTFGGGTKLEIKA
notes: also called MD-I
- EC50 [1]: 5.09 µg/mL
- IC50 [2]: 8.62 µg/mL
- EC50 [3]: 0.221 µg/mL
- IC50 of inhibition of ARG1 secretion by THP-1 cells in the presence of ApoE (精氨酸酶活性检测) [4]: 310 µg/mL
- binding result [5]: no binding (tested: 50μg/mL)
- binding result [6]: no binding (tested: 50μg/mL)
- binding result [7]: no binding (tested: 50μg/mL)
- binding result [8]: no binding (tested: 50μg/mL)
- binding result [9]: no binding (tested: 50μg/mL)
- binding result [10]: no binding (tested: 50μg/mL)
- binding result [11]: no binding (tested: 50μg/mL)
- binding result [12]: no binding (tested: 50μg/mL)
- binding result [13]: no binding (tested: 50μg/mL)
- binding result [14]: no binding (tested: 50μg/mL)
- OD 450nm/630nm [15]: 0.078
- OD 450nm/630nm [16]: 0.047
- OD 450nm/630nm [17]: 0.015
- OD 450nm/630nm [18]: 2.42
- OD 450nm/630nm [19]: 0.156
- OD 450nm/630nm [20]: 0.014
- OD 450nm/630nm [21]: 0.056
- OD 450nm/630nm [22]: 0.045
- OD 450nm/630nm [23]: 0.075
- OD 450nm/630nm [24]: 0.054
- OD 450nm/630nm [25]: 0.028
